The results in this text go back to publication PMC5704914 (Biochemistry, 2017).

For this test, the target named is apo-calmodulin (UniProt P0DP23 1-149). Description: fluorescence polarisation. Background: Fluorescence polarisation rises when a labelled molecule tumbles more slowly, as on binding a larger partner.

B1: fluorescein-labeled α11.2 IQ domain peptide AAs 1644-1668, Y1649A (peptide)
peptide: not shown
modifications: fluorescein covalently linked to the N-terminal amino group
B1: the affinity, expressed as Kd, was 61.9 µM.

B2: fluorescein-labeled α11.2 IQ domain peptide AAs 1644-1668, K1647A (peptide)
peptide: not shown
modifications: fluorescein covalently linked to the N-terminal amino group
With B2, the Kd – broadly, a measure of binding affinity in units of concentration – amounted to 44.2 µM.

B3: fluorescein-labeled α11.2 IQ domain peptide AAs 1644-1668, I1654A (peptide)
peptide: not shown
modifications: fluorescein covalently linked to the N-terminal amino group
B3 displayed a Kd of 141 µM. This Kd lies about 3.2-fold higher than the previous one.

B4: fluorescein-labeled α11.2 IQ domain peptide AAs 1644-1668, F1648A (peptide)
peptide: not shown
modifications: fluorescein covalently linked to the N-terminal amino group
Molecule B4 yielded a Kd of 32.4 µM.

B5: fluorescein-labeled α11.2 IQ domain peptide AAs 1644-1668, Q1655A (peptide)
peptide: not shown
modifications: fluorescein covalently linked to the N-terminal amino group
For the molecule B5, binding was put at a Kd of 22.3 µM.
